Assay results taken from paper PMC7870927, “Mechanism of the small ATP-independent chaperone Spy is substrate specific” (Nature Communications, 2021).
Values joined by “and” are separate entries in the source; they are usually repeats but may differ in a detail not shown here. Equal entries are not always repeated.

B1: Spy (small bacterial ATP-independent chaperone) (natural protein, UniProt P77754 24-161, looked up)
chain: ADTTTAAPADAKPMMHHKGKFGPHQDMMFKDLNLTDAQKQQIREIMKGQRDQMKRPPLEERRAMHDIIASDTFDKVKAEAQIAKMEEQRKANMLAHMETQNKIYNILTPEQKKQFNANFEKRLTERPAAKGKMPATAE
notes: chaperone Spy; Used and counted as a dimer throughout ('Spy dimer'); also called Spy dimer; SpyD; source: E. coli BL21 (DE3), purified (Ni-His Trap, ULP1 cleavage, HiTrap Q, HiLoad Superdex 75); not shown: His6, N-terminal, cleaved; SUMO, N-terminal, cleaved

Legend:
Fyn SH3 (native) SH3 = Fyn SH3 (native) SH3 (UniProt P06241); conditions: cited from earlier work
Fyn SH3 (native) SH3, sequence (P06241 82-143): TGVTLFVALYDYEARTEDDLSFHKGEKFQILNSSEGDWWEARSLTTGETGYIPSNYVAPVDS

[1] = target: Im7 (intermediate and unfolded states) (Escherichia coli) (UniProt Q03708); conditions: cited from earlier work
Im7 (intermediate and unfolded states) (Escherichia coli), sequence (Q03708 whole entry): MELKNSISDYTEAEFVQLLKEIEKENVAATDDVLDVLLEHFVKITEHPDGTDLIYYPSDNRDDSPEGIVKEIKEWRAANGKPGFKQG

[2] = target: Im7 (native) (Escherichia coli) (UniProt Q03708); conditions: cited from earlier work
Im7 (native) (Escherichia coli), sequence (Q03708 whole entry): as above

Fyn SH3 (unfolded) SH3 = Fyn SH3 (unfolded) SH3 (UniProt P06241); conditions: cited from earlier work
Fyn SH3 (unfolded) SH3, sequence (P06241 82-143): as the sequence (P06241 82-143) above

[3] = target: T1, apoflavodoxin from Anabaena PCC 7119, wild type (Anabaena PCC 7119, UniProt P0A3E0 3-170); test: other fluorescence titration; stopped-flow refolding: AnFld denatured in 5 M urea diluted 11.5-fold (0.09 µM final) into HN buffer (40 mM HEPES-KOH pH 7.5, 100 mM NaCl) with Spy dimer, 25 °C; normalised initial tryptophan fluorescence against Spy dimer concentration, one-site binding model; non-native state U* of AnFld; conditions: both partners purified
T1 construct: flavodoxin (apo form, without FMN) from Anabaena PCC 7119; gene codon-optimised, synthesised by GenScript; The same protein was used native and urea-denatured (5 M urea, then diluted: state U*); the assays tell the two apart; [U-2H,15N,13C]-labelled for the NMR titration; also called AnFld; AnFld WT; source: E. coli BL21 (DE3), purified (Ni-His Trap, ULP1 cleavage, HiTrap Q, Superdex 75; …)
T1 sequence: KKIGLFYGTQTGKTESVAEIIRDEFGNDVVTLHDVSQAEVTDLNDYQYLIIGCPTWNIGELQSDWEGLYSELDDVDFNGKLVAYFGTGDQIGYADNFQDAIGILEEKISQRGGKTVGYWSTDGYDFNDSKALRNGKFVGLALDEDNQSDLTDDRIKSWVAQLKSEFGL

[4] = target: T1, apoflavodoxin from Anabaena PCC 7119, …; test: other fluorescence titration; equilibrium titration of Spy dimer into 17.2 µM native AnFld WT (square hyperbola, one-site) or 10 µM AnFld 2A (quadratic tight-binding model) in HN buffer, 25 °C; intrinsic tryptophan fluorescence at 340 nm; apparent; conditions: both partners purified
[5] = target: T2, apoflavodoxin from Anabaena PCC 7119, L105A I109A double mutant (Anabaena PCC 7119, UniProt P0A3E0 3-170, L105A | I109A); test: as above; conditions: both partners purified
T2 construct: flavodoxin (apo form) from Anabaena PCC 7119 with the two destabilising mutations L105A and I109A; also called AnFld 2A; AnFld2A; source: E. coli BL21 (DE3), purified (same protocol as AnFld WT); not shown: His6, N-terminal, cleaved; SUMO, N-terminal, cleaved
T2 sequence: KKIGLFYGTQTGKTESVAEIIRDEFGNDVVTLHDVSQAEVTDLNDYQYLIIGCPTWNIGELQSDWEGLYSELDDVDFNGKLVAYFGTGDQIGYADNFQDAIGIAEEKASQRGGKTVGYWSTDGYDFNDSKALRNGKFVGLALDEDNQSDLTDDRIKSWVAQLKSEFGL

[6] = target: T3, apoflavodoxin from Anabaena PCC 7119, wild type (Anabaena PCC 7119, UniProt P0A3E0 3-170); test: initial fluorescence from kinetic fits
T3 chain: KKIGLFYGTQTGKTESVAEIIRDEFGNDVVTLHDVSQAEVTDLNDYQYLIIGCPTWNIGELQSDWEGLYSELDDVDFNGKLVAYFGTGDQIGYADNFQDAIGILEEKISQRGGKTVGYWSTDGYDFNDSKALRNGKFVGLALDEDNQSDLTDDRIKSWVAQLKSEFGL

[7] = target: T4, apoflavodoxin from Azotobacter vinelandii, C69A (Azotobacter vinelandii, UniProt P00324 1-180, C69A); test: AUC; sedimentation velocity of Spy with AnFld or AzoFld, 48,000 r.p.m., absorbance at 280 nm; 2DSA, genetic algorithm, Monte Carlo; conditions: both partners purified
T4 construct: flavodoxin (apo form) from Azotobacter vinelandii with C69A; The only AzoFld gene that the methods name is C69A; also called AzoFld; AzoFld C69A; source: E. coli BL21 (DE3), purified (same protocol as AnFld WT); not shown: His6, N-terminal, cleaved; SUMO, N-terminal, cleaved
T4 sequence (P00324 whole entry C70A): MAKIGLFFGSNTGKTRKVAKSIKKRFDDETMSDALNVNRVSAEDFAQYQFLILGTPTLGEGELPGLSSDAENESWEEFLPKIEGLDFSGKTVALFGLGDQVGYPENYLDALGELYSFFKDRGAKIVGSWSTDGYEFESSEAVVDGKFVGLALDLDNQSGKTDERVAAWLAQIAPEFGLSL

[8] = target: T1, apoflavodoxin from Anabaena PCC 7119, …; test: as above; conditions: both partners purified
[9] = target: T5, apoflavodoxin from Anabaena PCC 7119, L105A I109A double mutant (Anabaena PCC 7119, UniProt P0A3E0 3-170, L105A | I109A); test: ITC; first site (K1)
T5 sequence: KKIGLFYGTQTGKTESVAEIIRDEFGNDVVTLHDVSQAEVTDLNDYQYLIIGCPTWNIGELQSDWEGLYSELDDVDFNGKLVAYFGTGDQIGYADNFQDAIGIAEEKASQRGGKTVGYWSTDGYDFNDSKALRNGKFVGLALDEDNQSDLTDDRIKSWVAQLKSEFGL

[10] = target: T3, apoflavodoxin from Anabaena PCC 7119, …; test: ITC; 10 °C
[11] = target: T6, apoflavodoxin from Anabaena PCC 7119, F98N mutant (Anabaena PCC 7119, UniProt P0A3E0 3-170, F98N); test: ITC; 550 µM Spy dimer in the syringe, 50 µM AnFld F98N in the cell; 40 mM HEPES-KOH pH 7.5, 100 mM NaCl; 10 °C; one-site binding model; conditions: both partners purified
T6 construct: also called AnFld F98N; I^T mimic; source: E. coli BL21 (DE3), purified (same protocol as AnFld WT); not shown: His6, N-terminal, cleaved; SUMO, N-terminal, cleaved
T6 sequence: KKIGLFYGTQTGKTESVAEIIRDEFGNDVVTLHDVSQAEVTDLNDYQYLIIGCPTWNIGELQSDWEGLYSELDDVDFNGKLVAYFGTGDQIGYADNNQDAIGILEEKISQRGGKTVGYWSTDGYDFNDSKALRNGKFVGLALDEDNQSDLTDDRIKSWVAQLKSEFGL

[12] = target: T7, apoflavodoxin from Anabaena PCC 7119, F98N mutant (Anabaena PCC 7119, UniProt P0A3E0 3-170, F98N); test: ITC; 10 °C
T7 sequence: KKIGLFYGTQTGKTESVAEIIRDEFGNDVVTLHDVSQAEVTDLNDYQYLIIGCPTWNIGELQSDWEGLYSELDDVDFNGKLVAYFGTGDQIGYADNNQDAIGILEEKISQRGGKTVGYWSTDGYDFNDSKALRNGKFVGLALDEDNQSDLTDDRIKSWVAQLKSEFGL

[13] = target: T5, apoflavodoxin from Anabaena PCC 7119, …; test: ITC; second site (K2)
[14] = target: T2, apoflavodoxin from Anabaena PCC 7119, …; test: ITC + other: kinetic unfolding experiments; ITC: 1.2 mM Spy dimer in the syringe, 100 µM AnFld 2A in the cell; 40 mM HEPES-KOH pH 7.5, 100 mM NaCl; one-site or two-site models; two binding-competent conformations of AnFld 2A; conditions: both partners purified
[15] = target: T1, apoflavodoxin from Anabaena PCC 7119, …; test: ITC; 550 µM Spy dimer in the syringe, 50 µM AnFld WT in the cell; 40 mM HEPES-KOH pH 7.5, 100 mM NaCl; MicroCal iTC200; temperature not shown; conditions: both partners purified

Row | Molecule | Kd (Fyn SH3 (native) SH3) [µM] | Kd [1] [µM] | Kd [2] [µM] | Kd (Fyn SH3 (unfolded) SH3) [µM] | Kd [3] [µM] | Kd [4] [µM] | Kd [5] [µM] | Kd [6] [µM] | stoichiometry N [7] [AzoFld per Spy dimer] | stoichiometry N [8] [AnFld per Spy dimer] | Ka [9] [M⁻¹] | Ka [10] [M⁻¹] | Kd [11] [µM] | Ka [12] [M⁻¹] | Ka [13] [M⁻¹] | KD of one of two binding-competent conformations of AnFld 2A [14] | Kd [15] [µM]
1 | Spy (from UniProt P77754) | 50 | 4.7 | 20.5 | 2.9 |  |  |  |  |  |  |  |  |  |  |  |  | 
2 | B1 |  |  |  |  | 0.35 | 40 | 0.1 | 17.7 | 1 | 1 | 2.65e+06 | 35500 | 1.8 | 801000 | 4.37e+06 | 0.23 µM and 0.38 µM | 28.2
